Results as given in the DeepSol protein solubility set.

Assay: soluble on expression in E. coli; label from the status in PepcDB or PDB records

Sequence	soluble on expression in E. coli
MSLDETPTIHILWINAGLSCDGDSVALTAAMQPSIEEIVLGVLPGLPKIAVHWPLIDFECGPVGGSDTFIEWFFKGERGEIDPFVLVVEGSIPNESIKPEGYWCGFGDNPETGQPITTSEWIDRLAPKALAVVAIGTCATYGGIHAMAGNPTGAMGVPDYLGWDWKSQAGIPIVCVPGCPIQPDNFSETLTYLLYQAAGAAPMIPLDDKLRPTWLFGATVHEGCDRAGYYEQGQFALTYDSPKCLVKLGCWGPVVKCNVPKRGWMNGIGGCPNVGGICIACTMPGFPDKFMPFMDEPPGAKVSSSASGAYGAVVRKLRTLTARTVDKEPKWRHTGDRITTGYREGHHHHHH	not soluble
MGSDKIHHHHHHMDNNNSYLWPVTYDEVSHELTKWKFYKHFTKISGSVYLKNDLIDDPVLVTQALIKRCPQGVLRGYAALNRRGYQLFDDPWMPIISISGEPRTRKTTNVGKIIRRETPENLRRSGEFTLVSDSQALLDVFSLHGLDSFEHQVALIDHLIRQCPDLKDEIKKVPELRKHAEFTDEFAESPPESRLRVRLHMQGYRNFMPQVRVELEGRRFYLDLADPVWGVALEYNGGWHYTAEQRSKDAFRKNALKNAGWDVFEVTSKTLQSQQAWDYFFQQVRVAIQRKYADRKRRLPMQTVS	not soluble
MRLNHNSYEIFDFMRSRSAIGVLSKIIITIPPINLRMIIGVMGPEGSYSERAAKLWARKNGLRGAEFHYFADIEDAFLAAVGGKTDISVVPVENSIEGSVGVTLDLLLENEAVIIGEIVVKIEHCLLSKGEPEKIRVILSHPQGLAQCRHFLKTHFPEAELRSTGSTSHAARLAGEFEEMAAIASPEAAERYGLKILLSNVQDRKENHTRFIVVRGGEKVLSGKIKGKADSGEKLNTVFGRNAEHKLCSETETGTENSSSYAFKTSLIVYLEKDRPGALYEPLGFFAKRGINLTKIESRPSKKELGDYYFYIDLEGNISDVLIKDALEDIKSKASKKSRSSTLKVLGSYPAFKK	not soluble
MENQPKLNSSKEVIAFLAERFPQCFSAEGEARPLKIGIFQDLVERVGGEMNLSKTQLRAALRLYTSSWRYLYGVKAGAIRVDLDGNPCGELEEQHIAHARQQLEEAKARVQAQRAAQQAKKREAAAAAGQQDEGVRRERKPRPQQPRRKEGAEQRKPRPVAAKAPREERLTPVSDVSVLTVGQALKVKAGNNAMDATVLEITKDGVRVQLTSGMSMIVRAEHLVF	not soluble
MGSDKIHHHHHHMRGKILIFLHAHLPYVHHPEYDHFLEERWLFEAITETYIPLLMMFDEIEDFRLTMSITPPLMEMLSSRDLQEKYERHMEKLIELANKEVERTKKEHPLKHKMAKFYREHFEKILNVFRSYDGNILEGFKKYQETGKLEIVTCNATHAFLPLYQMYPEVVNAQITVGVKNYAKHMTLHPRGIWLAECGYYQGLDLYLAQNNVEYFFVDSHAFWFADEQPRYGVYRPIMTPSGVFAFARDPESSEQVWSAAVGYPGDPRYREFYRDIGFDREMEYIKDYIDPSGVRINTGIKYHRITSKSLDASQKEYYDIDLAMEAVEEHARDFLHKKESQARRLMDIMGVEPVIVAPFDAELFGHWWFEGVFFLKRFFELVNESKDLKLVTASEVIDTLEEVQIATPADSSWGAGGYYETWLNGTNDWIYRHLHEMIERMIDLSKKYYNSSDPLVERVLNQMLRELFLAQSSDWAFIMTTRTSVQYAENRTKLHIKRFLNLYDQLVSGRIDEEMLRYYEWTDAIFPEINFRVMARDVI	not soluble
MGHHHHHHSHMNKILIAAASSGTGKTTVTLGIMHALKKRGLRVQPFKVGPDYIDTNYHQAITGVASINLDSFLIDDDAMLAALFEKHGQSADISVIEGVMGLFDGLGIDRDNSSTSFIAKCTKTPVILVVDGKAISTSAAAIVDGFNRFDPELTIAGVIINRVASENHFSLIKGAIERYTDVPVLGYLPKNAAVALPERHLGLVPKEEMTELETKWEVLGDLIAEHVDLDRLLAISKTG	not soluble
MSVSPFFNPKRDSQLGEMMRDMGGMQRRLMPISGTFNPMTDDSEIMNSNDKFAVNLNVSNFKPEELKVNLEGRQLSIQGEHDVENEHGASRKSFSRMILLPEDVDITSVATNLSNDGKLCIEAPKLEGVCGRSVPVKEASMDHHHIE	not soluble
MAQLYYRYGTMNSGKTIEILKVAYNYEEQGKGVVIMTSALDTRDGVGYVSSRIGMKRPALAIEETTDIFGYIRDLPEKPYCVLVDEAQFLKRHHVYDLARVVDELDIPVMAFGLKNDFRNELFEGSKYLLLLADKIDEIKTICQYCKKKATMVLRTQDGLPVYDGEQIQIGGNETYISVCRKHYFAPMITSNKEQNYDN	not soluble
MSTEKLEASEEPQAPLANTSETNSIKGDTENIVTVFDLANEIEKSLKDVQRQMKENDDEFSRSIQAIEDKLNKMSR	not soluble
MSLTSLVSAVGSHHVTTDPDVLAGRSVDHTGRYRGRASALVRPGSAEEVAEVLRVCRDAGAYVTVQGGRTSLVAGTVPEHDDVLLSTERLCVVSDVDTVERRIEIGAGVTLAAVQHAASTAGLVFGVDLSARDTATVGGMASTNAGGLRTVRYGNMGEQVVGLDVALPDGTVLRRHSRVRRDNTGYDLPALFVGAEGTLGVITALDLRLHPTPSHRVTAVCGFAELAALVDAGRMFRDVEGIAALELIDGRAAALTREHLGVRPPVEADWLLLVELAADHDQTDRLADLLGGARMCGEPAVGVDAAAQQRLWRTRESLAEVLGVYGPPLKFDVSLPLSAISGFARDAVALVHRHVPDSPEALPLLFGHIGEGNLHLNVLRCPPDREPALYAKMMGLIAECGGNVSSEHGVGSRKRAYLGMSRQANDVAAMRRVKAALDPTGYLNAAVLFDEGHHHHHH	not soluble
MNNNENQTLISGGTVVTPTTEIEKGTVAFSNGKIVSVEAESHDNPDIDATGKYVLPGLVDLHGDDIERHLFPRAEERVDTTIALDRCDIANASAGVTTKYHAISFEDVPDDNRSIELARRLAEQIRNFNYETGARVDNRLHMRCELTNEASVDAVSEEIKSGGDLVSLVTHVPGTGQFTGENTLAQRYDRSDGELETGLQSLKTRRSGVPEAELLARAREVTELASNRNMTVASHDDETVASVDNAAAIGVDISEYPLSHRVAQRATELNLTVAMGAPNVVRGGSLWDGPDASQAIKDGVVDILCSDFRPQSLLSSVFIENDEPLKDRVFRVSTAPAAAAGLYDRGRLECGARADIIIVDPDPSPSIARTYVAGDQVYCSA	not soluble
MRIALLVKQARLQQGVRQIDLAERLGITLRTFRRIEAGSADGVSLRDFMLVVWGLGVSERLFQGLRDDESFSVEQLEAADRKRVRLPRNRPEDF	not soluble
MKIRALLLALGMATVLTGCQNMDSNGLLSSGAEAFQAYTLSDAQVKALSDQSCQELDSKAKIAPASSEYTKRLAKIAAALGDNINGQPVNYKVYETKDVNAFAMANGCIRVYSGLMDMMTDNEVEAVIGHEMGHVALGHVKKGMQVALGTNAVRVAAASAGGVVGSLSQSQLGDLGEKLVNSQFSQRQESEADDYSYDLLRKRGISPAGLATSFEKLAKLEAGRQSSMFDDHPASAARAQHVRDRMSADGIKLEHHHHHH	soluble
MSEQIRLENLTIFMQRRAVKHVYLRVHPPDGRVTLVAPTGMRLEVVRAFVTAKLDWIHKQQAKLQAQVREVPRQFIGGESHTVWGRHYVLQVVEKSAGPCVLMDQQTITLQVRPGSDLFKRAAVMHAWHKSLLHAVVPDLIGKWQDRLGVSVSAYFLQQMKTRWGSCNTRRRHIRLNTDLVRKPQDLLEYVVVHELVHLIEPSHNKRFVGLMDQHYPAWREATAELNQIPLSAIRPRGLEHHHHHH	not soluble
MSLASIMFGVFVHALECSRPVGLVQAKLLLWTLTASIMVIILSEEGEVAEQLEFFPVQSPCRGICQSDERGFCRGCFRSRDERFNWNKMSDGEKQEVLRLCRQRLMRKLRANKPASSDEPEQPSLFEGHHHHHH	not soluble
MRAIVFVKATKSSEEGVMPTTELMEAMGKFNEELVNAGIMQSGDGLHPSSKGKRVVFDGDSRTVVNGPFPHTNELVAGFWIWKVKDMDEAVEWVKRCPNPMLEKSEIEIRPMFEMEDFGDAVTPEIAAHVEELRARVGKQ	not soluble
GMEFNHLTKQLNQLLAQDYVAFSITENPVVQMLSQASFAQIAYVMQQYSIFPKELVGFTELARRKALGAGWNGVAQELQENIDEEMGSTTGGISHYTLLADGLEEGLGVAVKNTMPSVATSKLLRTVLSLFDRQVDYVLGATYAIEATSIPELTLIVKLVEWLHEGAIPKDLQYFFSKHLDEWEIEHEAGLRTSVAAYIQPEEFGEFAAGFRAMIDAMQVWWQELAQEAISSEVVLSTAIAQHH	soluble
MIIDQQLVCYKRLPNWTATTLPEMVTQKHNTKVGTWAKLTILSGTLHFYELDEQGEITAEHLFTPETEIPFVEPQSWHRIAAASDNLECYLSFYCKPEDYMAKKYDTKAHSEVLEAVQSGHIKPGRTLDLGCGHGRNALYLASLGHEVTAVDINNEATQRIQMIADEESYNVRAGYYDINVSALPESETFDFILSTVVFMFLDPNQIPAIIQNMQERTSIGGYNLIVCAMDTEEHPCTMPFPFTFEEGELKNYYSDWELIKYNENLGHLHRLDEHGNPIALQFATMLAKKVTLEHHHHHH	soluble
MTALETQLTEIVEKEQGQKIIPFLQKLTQEERESLIPCLSRLEEYYNKFVQLEERTYGTRATSGQHHIIDLAALVIFPLKEFRKHEWGINTAHLNEIAAWHIPTWLDSYFVEGEGKEFGGFYNMDYEILMDWIERGILTISPSPQTIAGYLVNYIHTTPVLEKRDITINEHIWYLFEYDCGQNWHANPAKGYPYYTFQHFTENGKLDRMRVLKESLLAINRNFNKNLCSWFAGMFTALSPSVEEQLTLQPEMLAALSSPHSRPINIILGLLKNLCSHPRFLTDDFLDQTTVLFASDVKAVHQNTLGVLSKLAKEKKEYRDTICCAAAQGLMSRDESTQNKIVKLIQTFGETESPTLKEALSAYAETMLTSTKKELAAYLKDNVSDALSTDKVLLTTLDEQASVASFDYEPMPPILREDNRIQEITSIEDLIFLASQILDSNELYHFDLFLNALVEWNEQLEAKHITQWTPVLQRAYKLLINGGSSRNGILDSMMATFLIDYAKLLIKRFPVEAKELSTLHEKMVQKDELQKGQWRYRNLQRITIRQKSNKRTEFPIHKQLLYRTLDLLESNENRLPMLSTPTHMPAFIDPIVLIKRLGQYQQANAEPDDIDMQIALSRMALNNYPSQDFPTVLQELKGEYQSLFSFLIGAKDAVPQAPFAHPSWWMTAGLIKSPETVYTEFKDFSYSKSSREFLTGNFSWWTFQTPHSYTDYHNKVVNWTSSTLSFNVPEGENIHIVNKGKYDERVSYHSYDPHPLLVEMYSQIERYDDIQNDLPRLVWLAPNTPEPLFVWCIRCAIYDPMLNEVREVGITQATIEALHQLRHEWHETSYLLEASCMLVADKTSRSYAAGIWTDRVNTGCIDSARIGRILGSHQRTGWGPLKRLTDLIQQQMINVSPLHNRELELLLTSLIAELPEQPVKELKKLLEIYSELLSVNNSRVTDERILQLLEIWKNTANLKKVIVSINR	not soluble
MTFTPPEFKILSVNTRNLETIFSTLLGRYKIITDPPVSEAVSSGEIIRNTLETLLARTHKVVICKTDRETARDVFKQLSNELREVLKENNEEKNKQAILFLLGALLHRYFRLIKEYDNFNSYIPYPSFLFSKPPSNVKDCRLFQAIRLALGLPEVMERNYRINDLKILDVTTIVTALETFRDNMQLIVGKDEGKMPRYKSYPHFAADKNFETYLQEIIDEHKRRNPVVLNQFKAINFIQSLVKQIEEEQRQIEEALTHLGKFLPKTCSDFKTISLELMEEQIKAQIESNVLQEKIIDLLYTGHIQENFSTMDCGSFIEAMKNCNSSLARYRALGGYCLLLQNEGVKEQLRFCIHQALGVEINPNELTDKDMLDAIRLLKTYFEANPKVELNFDFFNGKGSMNTFILQTELALAKKVQTVNKAQEDNSETRTTSLFV	not soluble
